Data taken from US20140023585A1, “177 LUTETIUM-LABELED BOMBESIN ANALOGS FOR RADIOTHERAPY” (UNIVERSITATSSPITAL BASEL, priority 2010, published 2014).

Legend:
[1] = test system: PC-3 tumors; experiment: in vivo; details: i.v.
Procedure: Biodistribution was investigated in NMRI nude mice bearing subcutaneous PC-3 tumors in the right hind limb at different time-points. Body weight of the male mice was approx. 30 g, 3 animals were investigated per time-point. After injecting an intravenous dose into the tail vein, mice were sacrificed at indicated time points and dissected organs were analyzed by radioactive counting. An administration dose of 100 μL was applied per animal with a mean activity of 86 kBq.
At indicated time points urine and feces were quantitatively collected. At the same time points, animals were sacrificed and exsanguinations under isoflurane anesthesia and the following organs and tissues were removed for measurement of [^177Lu] using the gamma-counter: spleen, liver, gallbladder, kidneys, lung, femur, heart, brain, fat, thyroid, muscle, skin, blood, tail, stomach (without content), prostate, intestine (with content), pancreas, adrenals, and the remaining body (designated as carcass).
Whole organs and tissues or aliquots were weighted and measured in a gamma-counter for radioactivity. In order to get the amount of total radioactivity administered in each animal (=100%) 3 aliquots (100 μL each) of the injected solution were always measured in parallel. The results of the biodistribution and excretion are reported as percent of injected dose per gram of tissue (% ID/g) and percent of injected dose per organ (% ID), respectively. All data are given as mean value±standard deviation, which were calculated by using all animals per time and sample.

[2] = Toxicity study, same therapy protocol in CD1 mice; assay type: in vivo
Procedure: (§1) A first therapy study was conducted on 25 nude mice (15-20 g) subcutaneously implanted with PC-3 ([…]). For toxicity study the same therapy protocol was applied to 25 CD1 mice. Thirteen days after implantation the mice were randomly divided in 5 groups and treated as described below: • 1. […] 200 pmol of ^natcompound 2 • 5. PBS

[3] = test system: PC-3 tumors; experiment: Radionuclide therapy study with repeated injections; assay type: in vivo, nude mice; details: end of the study, compared to controls
Procedure: as §1
According to the protocol agreed upon, three injections per week (days 0, 2, 4) were done and the procedure was repeated (days 14, 16, 18) after one pause week. Based on the biodistribution data of compound 3 with ^111In we observed that injections after 48 h would maintain stable the uptake in the tumor. The pause week is, in our opinion, important for the safety of the animals. The mice were periodically monitored by measuring tumor size and body mass. Animals with loss of >20% of their original weight or with tumor size >20 mm in diameter were sacrificed. Tumor sizes were determined by caliper measurements in two dimensions and tumor volumes were calculated assuming an elliptical shape.

For CC(C)C[C@H](NC(=O)C[C@H](O)[C@H](CC(C)C)NC(=O)[C@H](Cc1c[nH]cn1)NC(=O)CNC(=O)[C@@H](NC(=O)[C@H](C)NC(=O)[C@H](Cc1c[nH]c2ccccc12)NC(=O)[C@H](CCC(N)=O)NC(=O)[C@@H](Cc1ccccc1)NC(=O)CN1CCC(NC(=O)CN2CCN(CC(=O)O)CCN(CC(=O)O)CCN(CC(=O)O)CC2)CC1)C(C)C)C(N)=O [compound 2, [^177Lu]-DOTA-4-amino-1-carboxymethylpiperidine-D-Phe-Gln-Trp-Ala-Val-Gly-His-Sta-Leu-NH2, metal not drawn], the “% ID Gallbladder” value ([1]; 1.0 h p.a.) was 0.000 % ID, the “% ID/g Kidney” value ([1]; 1.0 h p.a.) was 1.72 (±0.45) % ID/g and the “% ID/g Tumor” value ([1]; 1.0 h p.a.) was 5.60 (±1.66) % ID/g. For the same compound, the “% ID Gallbladder” value ([1]; 4.0 h p.a.) was 0.000 % ID, the “% ID/g Kidney” value ([1]; 24.0 h p.a.) was 0.57 (±0.21) % ID/g and the “% ID/g Liver” value ([1]; 24.0 h p.a.) was 0.05 (±0.01) % ID/g. For the same compound, the “% ID/g Tumor” value ([1]; 24.0 h p.a.) was 6.06 (±1.53) % ID/g, the “survival and health of CD1 animals” value [2] was “alive and look healthy” and the “body weight of CD1 animals” value ([2]; stabilized after 5-6 months) was “increased”. For the same compound, the histopathological changes [3] was “no compound (radio-peptide) related histopathological changes”.
